The supplement of paper PMC7877785
± gives the uncertainty stated by the source.

Assay: self-splicing fitness, log relative to wild type (ln ratio); higher = more splicing; Tetrahymena group I intron in knt gene, E. coli kanamycin selection, DiMSum; sequences stand for … in CUCUCU…GGAGGGAAAAGUUAUCAGGCAUGCACCUGGUAGCUAGUCUUUAAACCAAUAGAUUGCAUCGGUUUAAAAGGCAAGACCGUCAAAUUGCGGGAAAGGGGUCAACAGCCGUUCAGUACCAAGUCUCAGGGGAAACUUUGAGAUGGCCUUGCAAAGGGUAUGGUAAUAAGCUGACGGACAUGGUCCUAACCACGCAGCCAAGUCCUAAGUCAACAGAUCUUCUGUUGAUAUGGAUGCAGUUCACAGACUAAAUGUCGGUCGGGGAAGAUGUAUUCUUCUCAUAAGAUAUAGUCGGACCUCUCCUUAAUGGGAGCUAGCGGAUGAAGUGAUGCAACACUGGAGCCGCUGGGAACUAAUUUGUAUGCGAAAGUAUAUUGAUUAGUUUUGGAGUACUCGUGGUCG
Outline: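 The eight P1ex-region nucleotides of an intron in the knt kanamycin-resistance gene on pET-22b(+) were all randomised and the library put into E. coli BL21(DE3). Six replicate transformations were grown overnight at 37°C or 30°C on LB agar with or without 25 μg/mL kanamycin, together with 100 μg/mL carbenicillin, 50 μM IPTG and 0.2% rhamnose. Colonies were pooled and amplicon-sequenced on an Illumina HiSeq 2500. Fitness from DiMSum is the error-weighted combination of wild-type-normalised replicate fold changes, kanamycin over none.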

Sequence | self-splicing fitness (ln) (30 °C) | self-splicing fitness (ln) (37 °C)
GAAUAGCAAUAUUACGACAU | -0.389 ± 0.012 | 0.00512 ± 0.033
UCGUAGCAAUAUUACGCGGC | – | -2.15 ± 0.46
GGUGAGCAAUAUUACGUUUA | -3.01 ± 0.28 | -1.44 ± 0.18
GCGCAGCAAUAUUACGUCAA | -2.46 ± 0.14 | -0.0917 ± 0.1
CUAUAGCAAUAUUACGACAU | -4.157 ± 0.031 | -3.08 ± 0.045
UUAGAGCAAUAUUACGCCCG | -1.21 ± 0.11 | -0.643 ± 0.19
GCCCAGCAAUAUUACGCUCA | -0.789 ± 0.08 | -0.055 ± 0.1
AAGUAGCAAUAUUACGGAUG | -3.53 ± 0.39 | -1.76 ± 0.17
CCACAGCAAUAUUACGCGGA | -3.84 ± 0.21 | -1.01 ± 0.11
CCGCAGCAAUAUUACGGAGC | -3.52 ± 0.14 | -2.48 ± 0.18
CGGAAGCAAUAUUACGACGC | – | -0.637 ± 0.37
CCACAGCAAUAUUACGUCUG | -3.12 ± 0.088 | -1.98 ± 0.083
AUUAAGCAAUAUUACGUUGA | -2.67 ± 0.24 | -1.95 ± 0.16
UACGAGCAAUAUUACGUCAU | -4.92 ± 0.45 | -3.92 ± 0.39
AGGGAGCAAUAUUACGCAAG | – | -1.54 ± 0.3
CUUAAGCAAUAUUACGUCUU | -3.64 ± 0.24 | -3.11 ± 0.25
CGGUAGCAAUAUUACGACCC | 0.488 ± 0.48 | -1.29 ± 0.44
GAGCAGCAAUAUUACGGGGG | -3.36 ± 0.26 | -2.46 ± 0.32
GAUAAGCAAUAUUACGGGUU | -2.18 ± 0.12 | -2.26 ± 0.15
GUCGAGCAAUAUUACGCACG | -1 ± 0.28 | –
UAGUAGCAAUAUUACGCUCG | 0.127 ± 0.15 | 0.103 ± 0.19
GGUAAGCAAUAUUACGAUAC | -0.265 ± 0.12 | -0.608 ± 0.16
GUGGAGCAAUAUUACGCGCA | -1.48 ± 0.43 | -1.47 ± 0.35
AAUCAGCAAUAUUACGUCGC | -2.06 ± 0.17 | -1.24 ± 0.17
AUGUAGCAAUAUUACGCGGA | -2.41 ± 0.3 | -1.09 ± 0.2
CUUGAGCAAUAUUACGCUAA | -4.05 ± 0.31 | -3.36 ± 0.35

Sequence | self-splicing fitness (ln) (30 °C) | self-splicing fitness (ln) (37 °C)
AGUGAGCAAUAUUACGCAGA | – | -1.35 ± 0.28
ACGGAGCAAUAUUACGAUAA | -3.89 ± 0.23 | -2.72 ± 0.21
UGACAGCAAUAUUACGAAGU | -3.26 ± 0.2 | -2.91 ± 0.28
GGAGAGCAAUAUUACGGUCG | -1.18 ± 0.25 | -1.56 ± 0.29
CGACAGCAAUAUUACGGGCA | -1.24 ± 0.14 | 0.117 ± 0.13
UAAGAGCAAUAUUACGGCCU | -1.36 ± 0.47 | –
GUUCAGCAAUAUUACGGAAG | -0.667 ± 0.088 | 0.566 ± 0.12
ACGGAGCAAUAUUACGAAGC | -4.24 ± 0.39 | -2.4 ± 0.18
CACAAGCAAUAUUACGUUUC | -3.53 ± 0.19 | -1.8 ± 0.17
GAUCAGCAAUAUUACGCGUG | -0.471 ± 0.048 | 0.0677 ± 0.066
CUCUAGCAAUAUUACGCUUU | -3.13 ± 0.28 | -2.08 ± 0.22
CUGGAGCAAUAUUACGACCG | -0.607 ± 0.082 | 0.106 ± 0.14
UUAAAGCAAUAUUACGACUU | -1.11 ± 0.1 | -0.0515 ± 0.14
CCCCAGCAAUAUUACGACUA | -2.66 ± 0.17 | -2.93 ± 0.28
AUUGAGCAAUAUUACGUUAC | – | -1.76 ± 0.3
GGGGAGCAAUAUUACGGAGC | -2.66 ± 0.33 | -1.79 ± 0.2
GGCGAGCAAUAUUACGAGAC | -1.31 ± 0.49 | –
UCGCAGCAAUAUUACGCGUU | -4.2 ± 0.27 | -2.38 ± 0.13
UCGGAGCAAUAUUACGCGUC | -2.14 ± 0.47 | –
GGUGAGCAAUAUUACGCAUG | -1.48 ± 0.11 | -0.697 ± 0.15
CCUAAGCAAUAUUACGGAUA | -4.31 ± 0.26 | -4.12 ± 0.31
CUCUAGCAAUAUUACGAUGA | -1.93 ± 0.2 | -1.93 ± 0.29
UGAGAGCAAUAUUACGAAGG | -2.94 ± 0.18 | -1.85 ± 0.27
UUAGAGCAAUAUUACGACAG | -0.55 ± 0.082 | -0.391 ± 0.1
CCUCAGCAAUAUUACGGUUC | -3.33 ± 0.14 | -3.16 ± 0.27
